Measurements as given in patent US20220143024A1, “METHODS OF USING IMIPRIDONES” (Board of Regents, The University of Texas System, priority 2019, published 2022).

Key:
Assay in all cases: BioID-MS
OXA1L (human) = OXA1L (human) (UniProt Q15070)
CLIC4 (human) = CLIC4 (human) (UniProt Q9Y696)
NDUFA7 (human) = NDUFA7 (human) (UniProt O95182)
ACAT1 (human) = ACAT1 (human) (UniProt P24752)
POLRMT (human) = POLRMT (human) (UniProt O00411)
MTRF1 (human) = MTRF1 (human) (UniProt O75570)
GCDH (human) = GCDH (human) (UniProt Q92947)
ABCB7 (human) = ABCB7 (human) (UniProt O75027)
PCK2 (human) = PCK2 (human) (UniProt Q16822)
Sequence of PCK2 (human) (Q16822 33-640 limits assumed): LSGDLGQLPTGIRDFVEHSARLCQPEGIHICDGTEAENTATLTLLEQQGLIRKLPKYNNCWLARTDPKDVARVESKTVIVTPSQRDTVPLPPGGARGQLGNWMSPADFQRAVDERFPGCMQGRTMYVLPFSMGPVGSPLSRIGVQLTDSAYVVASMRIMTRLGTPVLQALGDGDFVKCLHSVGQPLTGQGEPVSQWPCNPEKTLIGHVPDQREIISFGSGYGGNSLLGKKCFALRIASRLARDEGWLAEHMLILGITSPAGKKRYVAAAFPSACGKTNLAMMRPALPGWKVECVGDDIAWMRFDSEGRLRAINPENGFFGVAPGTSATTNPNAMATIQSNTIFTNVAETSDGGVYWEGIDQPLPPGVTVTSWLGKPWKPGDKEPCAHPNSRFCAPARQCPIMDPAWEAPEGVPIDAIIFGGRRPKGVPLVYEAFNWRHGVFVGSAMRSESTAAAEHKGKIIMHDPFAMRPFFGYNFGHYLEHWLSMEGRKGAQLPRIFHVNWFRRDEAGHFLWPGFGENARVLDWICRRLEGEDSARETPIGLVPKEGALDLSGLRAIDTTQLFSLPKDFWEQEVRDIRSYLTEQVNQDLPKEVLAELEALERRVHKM

SDHA (human) = SDHA (human) (UniProt P31040)
MRPS28 (human) = MRPS28 (human) (UniProt Q9Y2Q9)
GTPBP3 (human) = GTPBP3 (human) (UniProt Q969Y2)
CRAT (human) = CRAT (human) (UniProt P43155)
HINT2 (human) = HINT2 (human) (UniProt Q9BX68)
RPS15A (human) = RPS15A (human) (UniProt P62244)
CLYBL (human) = CLYBL (human) (UniProt Q8N0X4)
Sequence of CLYBL (human) (Q8N0X4 23-340 limits assumed): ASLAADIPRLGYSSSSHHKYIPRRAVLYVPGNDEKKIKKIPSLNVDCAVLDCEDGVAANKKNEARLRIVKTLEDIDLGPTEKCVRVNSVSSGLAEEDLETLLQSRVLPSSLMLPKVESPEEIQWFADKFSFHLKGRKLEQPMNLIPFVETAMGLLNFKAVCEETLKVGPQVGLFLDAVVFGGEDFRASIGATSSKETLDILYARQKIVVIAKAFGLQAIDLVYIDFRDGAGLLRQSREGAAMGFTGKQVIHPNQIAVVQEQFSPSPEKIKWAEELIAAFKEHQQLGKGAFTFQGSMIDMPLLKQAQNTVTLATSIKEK

MRPL47 (human) = MRPL47 (human) (UniProt Q9HD33)
ZADH2 (human) = ZADH2 (human) (UniProt Q8N4Q0)
Sequence of ZADH2 (human) (Q8N4Q0 whole entry): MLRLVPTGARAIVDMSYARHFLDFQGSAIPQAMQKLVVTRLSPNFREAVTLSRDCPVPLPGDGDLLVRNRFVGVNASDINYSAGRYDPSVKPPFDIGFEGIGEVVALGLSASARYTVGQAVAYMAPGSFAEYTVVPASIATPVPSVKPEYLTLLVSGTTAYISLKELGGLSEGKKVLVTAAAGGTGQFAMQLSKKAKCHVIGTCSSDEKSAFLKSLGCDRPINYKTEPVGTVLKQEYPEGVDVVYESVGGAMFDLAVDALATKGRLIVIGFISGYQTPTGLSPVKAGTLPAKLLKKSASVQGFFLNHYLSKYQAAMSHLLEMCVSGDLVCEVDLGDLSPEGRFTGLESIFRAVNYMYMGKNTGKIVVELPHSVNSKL

SFXN4 (human) = SFXN4 (human) (UniProt Q6P4A7)
ACADSB (human) = ACADSB (human) (UniProt P45954)
ECHS1 (human) = ECHS1 (human) (UniProt P30084)
CDK5RAP1 (human) = CDK5RAP1 (human) (UniProt Q96SZ6)
PDK3 (human) = PDK3 (human) (UniProt Q15120)
DCAKD (human) = DCAKD (human) (UniProt Q8WVC6)
NIPSNAP2 (human) = NIPSNAP2 (human) (UniProt O75323)
MRPL19 (human) = MRPL19 (human) (UniProt P49406)
NDUFAF3 (human) = NDUFAF3 (human) (UniProt Q9BU61)
ABAT (human) = ABAT (human) (UniProt P80404)
CHCHD3 (human) = CHCHD3 (human) (UniProt Q9NX63)
C20orf72 (human) = C20orf72 (human) (UniProt Q9BQP7)
DHTKD1 (human) = DHTKD1 (human) (UniProt Q96HY7)
MTPAP (human) = MTPAP (human) (UniProt Q9NVV4)
MDH2 (human) = MDH2 (human) (UniProt P40926)
EFHA1 (human) = EFHA1 (human) (UniProt Q8IYU8)
Sequence of EFHA1 (human) (Q8IYU8 23-434 limits assumed): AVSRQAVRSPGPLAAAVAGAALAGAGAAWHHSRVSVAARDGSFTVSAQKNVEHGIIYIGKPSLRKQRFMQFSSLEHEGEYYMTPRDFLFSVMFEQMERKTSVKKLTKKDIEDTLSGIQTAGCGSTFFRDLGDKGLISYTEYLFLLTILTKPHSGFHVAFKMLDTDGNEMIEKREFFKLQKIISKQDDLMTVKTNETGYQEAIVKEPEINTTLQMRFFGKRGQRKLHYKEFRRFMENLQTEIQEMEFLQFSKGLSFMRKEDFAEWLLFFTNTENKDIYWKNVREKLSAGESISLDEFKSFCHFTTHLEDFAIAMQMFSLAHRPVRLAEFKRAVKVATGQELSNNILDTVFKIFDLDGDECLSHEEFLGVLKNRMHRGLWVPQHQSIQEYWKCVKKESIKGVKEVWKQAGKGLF

MRRF (human) = MRRF (human) (UniProt Q96E11)
HSPE1 (human) = HSPE1 (human) (UniProt P61604)
Sequence of HSPE1 (human) (P61604 2-102 limits assumed): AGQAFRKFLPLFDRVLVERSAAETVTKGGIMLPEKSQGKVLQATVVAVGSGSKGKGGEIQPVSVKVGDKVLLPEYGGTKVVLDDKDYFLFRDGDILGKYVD

TARS2 (human) = TARS2 (human) (UniProt Q9BW92)
NADKD1 (human) = NADKD1 (human) (UniProt Q4G0N4)
FASTKD2 (human) = FASTKD2 (human) (UniProt Q9NYY8)
ABCB10 (human) = ABCB10 (human) (UniProt Q9NRK6)
GRPEL1 (human) = GRPEL1 (human) (UniProt Q9HAV7)
SPRYD4 (human) = SPRYD4 (human) (UniProt Q8WW59)
Sequence of SPRYD4 (human) (Q8WW59 whole entry): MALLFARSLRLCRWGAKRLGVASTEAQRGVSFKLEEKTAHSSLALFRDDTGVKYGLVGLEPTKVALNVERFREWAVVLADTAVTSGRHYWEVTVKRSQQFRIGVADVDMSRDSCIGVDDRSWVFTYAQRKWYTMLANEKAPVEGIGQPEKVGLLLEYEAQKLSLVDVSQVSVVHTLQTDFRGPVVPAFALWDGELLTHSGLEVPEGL

IDH3A (human) = IDH3A (human) (UniProt P50213)
C20orf7 (human) = C20orf7 (human) (UniProt Q5TEU4)
ACN9 (human) = ACN9 (human) (UniProt Q9NRP4)
NDUFS2 (human) = NDUFS2 (human) (UniProt O75306)
HSD17B8 (human) = HSD17B8 (human) (UniProt Q92506)
ACAA2 (human) = ACAA2 (human) (UniProt P42765)
GLRX5 (human) = GLRX5 (human) (UniProt Q86SX6)
Sequence of GLRX5 (human) (Q86SX6 32-157 limits assumed): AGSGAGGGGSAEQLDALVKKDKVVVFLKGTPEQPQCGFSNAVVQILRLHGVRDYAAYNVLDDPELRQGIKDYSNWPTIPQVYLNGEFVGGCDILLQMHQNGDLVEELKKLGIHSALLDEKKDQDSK

PDE12 (human) = PDE12 (human) (UniProt Q6L8Q7)
POLG (human) = POLG (human) (UniProt P54098)
SSBP1 (human) = SSBP1 (human) (UniProt Q04837)
XPNPEP3 (human) = XPNPEP3 (human) (UniProt Q9NQH7)
PDIA3 (human) = PDIA3 (human) (UniProt P30101)
ACAD9 (human) = ACAD9 (human) (UniProt Q9H845)
IDI1 (human) = IDI1 (human) (UniProt Q13907)
Sequence of IDI1 (human) (Q13907 whole entry): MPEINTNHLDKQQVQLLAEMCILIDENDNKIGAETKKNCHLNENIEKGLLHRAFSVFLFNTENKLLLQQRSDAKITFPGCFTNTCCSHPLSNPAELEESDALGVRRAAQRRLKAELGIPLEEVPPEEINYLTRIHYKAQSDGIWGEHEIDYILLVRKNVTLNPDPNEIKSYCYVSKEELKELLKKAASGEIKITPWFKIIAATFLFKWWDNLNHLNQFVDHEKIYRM

MGME1 (human) = MGME1 (human) (UniProt Q9BQP7)
VWA8 (human) = VWA8 (human) (UniProt A3KMH1)
Sequence of VWA8 (human) (A3KMH1 29-1905 limits assumed): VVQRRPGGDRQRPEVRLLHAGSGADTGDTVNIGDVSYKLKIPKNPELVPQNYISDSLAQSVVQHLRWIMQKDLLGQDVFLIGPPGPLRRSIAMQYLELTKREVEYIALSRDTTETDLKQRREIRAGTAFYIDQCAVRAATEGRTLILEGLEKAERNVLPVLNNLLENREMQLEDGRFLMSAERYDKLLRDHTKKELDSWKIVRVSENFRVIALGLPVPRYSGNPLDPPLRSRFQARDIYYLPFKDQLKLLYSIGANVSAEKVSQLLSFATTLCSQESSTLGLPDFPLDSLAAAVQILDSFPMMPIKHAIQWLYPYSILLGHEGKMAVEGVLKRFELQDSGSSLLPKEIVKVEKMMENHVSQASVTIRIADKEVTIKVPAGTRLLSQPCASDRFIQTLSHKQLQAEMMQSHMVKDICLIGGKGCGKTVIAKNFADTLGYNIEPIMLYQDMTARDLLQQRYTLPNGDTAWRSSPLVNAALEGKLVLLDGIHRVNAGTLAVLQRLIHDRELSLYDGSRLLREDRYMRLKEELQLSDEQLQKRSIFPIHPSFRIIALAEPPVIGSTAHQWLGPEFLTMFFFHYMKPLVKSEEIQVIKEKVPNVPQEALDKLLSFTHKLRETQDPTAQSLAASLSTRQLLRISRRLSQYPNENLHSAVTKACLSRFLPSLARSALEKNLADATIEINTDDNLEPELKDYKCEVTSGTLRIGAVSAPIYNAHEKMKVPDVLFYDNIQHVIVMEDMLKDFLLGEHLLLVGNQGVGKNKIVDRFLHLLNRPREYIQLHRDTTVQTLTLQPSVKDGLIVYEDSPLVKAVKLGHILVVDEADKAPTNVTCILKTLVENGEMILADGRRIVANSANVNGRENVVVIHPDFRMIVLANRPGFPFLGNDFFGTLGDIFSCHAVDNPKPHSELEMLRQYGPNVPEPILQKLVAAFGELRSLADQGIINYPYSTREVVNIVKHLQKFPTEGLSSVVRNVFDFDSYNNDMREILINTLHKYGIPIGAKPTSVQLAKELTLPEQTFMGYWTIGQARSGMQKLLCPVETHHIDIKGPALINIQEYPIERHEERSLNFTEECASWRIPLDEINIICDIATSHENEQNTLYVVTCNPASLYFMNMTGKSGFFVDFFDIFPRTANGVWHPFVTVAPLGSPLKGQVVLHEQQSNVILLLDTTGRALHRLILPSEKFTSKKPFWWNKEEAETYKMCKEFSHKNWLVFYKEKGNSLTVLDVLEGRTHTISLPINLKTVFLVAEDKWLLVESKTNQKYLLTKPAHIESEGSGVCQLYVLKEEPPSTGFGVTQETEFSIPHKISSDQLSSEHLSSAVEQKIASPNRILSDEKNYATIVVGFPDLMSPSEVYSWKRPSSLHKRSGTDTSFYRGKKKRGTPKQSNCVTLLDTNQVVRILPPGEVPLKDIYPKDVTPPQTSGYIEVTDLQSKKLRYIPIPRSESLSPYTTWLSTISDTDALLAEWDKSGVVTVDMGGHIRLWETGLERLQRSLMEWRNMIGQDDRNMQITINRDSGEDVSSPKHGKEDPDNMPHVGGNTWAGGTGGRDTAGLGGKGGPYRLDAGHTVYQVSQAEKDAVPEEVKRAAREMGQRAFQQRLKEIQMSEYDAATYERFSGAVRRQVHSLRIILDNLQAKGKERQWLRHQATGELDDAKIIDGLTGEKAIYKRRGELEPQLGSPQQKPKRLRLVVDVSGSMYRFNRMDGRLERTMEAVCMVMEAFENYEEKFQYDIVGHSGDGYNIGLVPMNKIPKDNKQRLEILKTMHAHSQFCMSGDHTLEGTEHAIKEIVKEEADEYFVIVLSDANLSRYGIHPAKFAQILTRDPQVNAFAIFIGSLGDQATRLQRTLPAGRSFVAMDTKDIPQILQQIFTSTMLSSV

Sequence of CLIC4 (human) (Q9Y696 2-253 limits assumed): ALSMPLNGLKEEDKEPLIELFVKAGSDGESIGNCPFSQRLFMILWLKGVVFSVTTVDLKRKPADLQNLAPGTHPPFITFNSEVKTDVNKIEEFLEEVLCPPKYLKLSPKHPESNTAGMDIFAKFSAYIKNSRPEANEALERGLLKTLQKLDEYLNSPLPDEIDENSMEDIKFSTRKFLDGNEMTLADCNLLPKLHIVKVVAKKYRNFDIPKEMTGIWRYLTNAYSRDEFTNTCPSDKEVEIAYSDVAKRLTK
Sequence of ACAT1 (human) (P24752 34-427 limits assumed): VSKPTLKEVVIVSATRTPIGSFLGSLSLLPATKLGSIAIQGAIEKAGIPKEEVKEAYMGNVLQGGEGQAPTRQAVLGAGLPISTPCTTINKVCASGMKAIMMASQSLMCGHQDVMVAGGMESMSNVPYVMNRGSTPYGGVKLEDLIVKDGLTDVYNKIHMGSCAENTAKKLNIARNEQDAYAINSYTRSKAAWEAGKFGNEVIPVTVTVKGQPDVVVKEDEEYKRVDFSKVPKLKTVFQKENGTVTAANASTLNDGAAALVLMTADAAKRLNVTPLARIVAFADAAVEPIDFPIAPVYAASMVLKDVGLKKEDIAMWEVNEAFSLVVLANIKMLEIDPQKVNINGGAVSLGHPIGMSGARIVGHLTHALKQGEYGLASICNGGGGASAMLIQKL

Which results are given for “FlagBirA-ClpP (Y118A) (from UniProt P06709 1-321; Q16740 57-277) (enzyme)”?
Log2 Fold change (vs control) (OXA1L (human)): -1 log2; Log2 Fold change (vs control) (CLIC4 (human)): -2.81 log2; Log2 Fold change (vs control) (NDUFA7 (human)): -2.22 log2; Log2 Fold change (vs control) (ACAT1 (human)): -0.01 log2; Log2 Fold change (vs control) (POLRMT (human)): 0.57 log2; Log2 Fold change (vs control) (MTRF1 (human)): -1.44 log2; Log2 Fold change (vs control) (GCDH (human)): 1 log2; Log2 Fold change (vs control) (ABCB7 (human)): -0.65 log2; Log2 Fold change (vs control) (PCK2 (human)): -0.51 log2; Log2 Fold change (vs control) (SDHA (human)): 0.34 log2; Log2 Fold change (vs control) (MRPS28 (human)): -0.49 log2; Log2 Fold change (vs control) (GTPBP3 (human)): -0.5 log2; Log2 Fold change (vs control) (CRAT (human)): -3 log2; Log2 Fold change (vs control) (HINT2 (human)): 0.09 log2; Log2 Fold change (vs control) (RPS15A (human)): -0.45 log2; Log2 Fold change (vs control) (CLYBL (human)): -3.17 log2; Log2 Fold change (vs control) (MRPL47 (human)): -1.94 log2; Log2 Fold change (vs control) (ZADH2 (human)): -1.46 log2; Log2 Fold change (vs control) (SFXN4 (human)): -0.38 log2; Log2 Fold change (vs control) (ACADSB (human)): -0.2 log2; Log2 Fold change (vs control) (ECHS1 (human)): -0.33 log2; Log2 Fold change (vs control) (CDK5RAP1 (human)): -0.26 log2; Log2 Fold change (vs control) (PDK3 (human)): 0.6 log2; Log2 Fold change (vs control) (DCAKD (human)): -3.75 log2; Log2 Fold change (vs control) (NIPSNAP2 (human)): 0.61 log2; Log2 Fold change (vs control) (MRPL19 (human)): -0.97 log2; Log2 Fold change (vs control) (NDUFAF3 (human)): 0.46 log2; Log2 Fold change (vs control) (ABAT (human)): -3.58 log2; Log2 Fold change (vs control) (CHCHD3 (human)): -2.46 log2; Log2 Fold change (vs control) (C20orf72 (human)): 0.12 log2; Log2 Fold change (vs control) (DHTKD1 (human)): -0.12 log2; Log2 Fold change (vs control) (MTPAP (human)): -0.78 log2; Log2 Fold change (vs control) (MDH2 (human)): -0.03 log2; Log2 Fold change (vs control) (EFHA1 (human)): -4.17 log2; Log2 Fold change (vs control) (MRRF (human)): -0.1 log2; Log2 Fold change (vs control) (HSPE1 (human)): 0.92 log2; Log2 Fold change (vs control) (TARS2 (human)): -0.25 log2; Log2 Fold change (vs control) (NADKD1 (human)): -1.04 log2; Log2 Fold change (vs control) (FASTKD2 (human)): 0.71 log2; Log2 Fold change (vs control) (ABCB10 (human)): -1.32 log2; Log2 Fold change (vs control) (GRPEL1 (human)): 0 log2; Log2 Fold change (vs control) (SPRYD4 (human)): 0.22 log2; Log2 Fold change (vs control) (IDH3A (human)): -0.06 log2; Log2 Fold change (vs control) (C20orf7 (human)): -0.06 log2; Log2 Fold change (vs control) (ACN9 (human)): -2.14 log2; Log2 Fold change (vs control) (NDUFS2 (human)): 0.1 log2; Log2 Fold change (vs control) (HSD17B8 (human)): -2.58 log2; Log2 Fold change (vs control) (ACAA2 (human)): -0.92 log2; Log2 Fold change (vs control) (GLRX5 (human)): -0.26 log2; Log2 Fold change (vs control) (PDE12 (human)): 0.03 log2; Log2 Fold change (vs control) (POLG (human)): 0.26 log2; Log2 Fold change (vs control) (SSBP1 (human)): 0.89 log2; Log2 Fold change (vs control) (XPNPEP3 (human)): -0.31 log2; Log2 Fold change (vs control) (PDIA3 (human)): -0.41 log2; Log2 Fold change (vs control) (ACAD9 (human)): 1.18 log2; Log2 Fold change (vs control) (IDI1 (human)): 1.28 log2; Log2 Fold change (vs control) (MGME1 (human)): 0.44 log2; Log2 Fold change (vs control) (VWA8 (human)): 1.02 log2
